Laboratory results taken from publication PMC12245028.

Molecular target: p65 (RELA, Transcription factor p65) (UniProt Q04206)
Test: anti-HA co-IP, p65 blot
Conditions: reference: HA-WEE1 wild type; sites S642

For “HA-WEE1 (from UniProt P30291) HA-WEE1 S642A”, the “binding against the reference” value was “lost”.
